To fix the notation:
T1: indolicidin (Bos taurus (bovine; synthetic peptide), UniProt P33046)
T1 chain: ILPWKWPWWPWRR

As a reminder, the Kd is the equilibrium constant for the complex coming apart. A higher Kd goes with a looser complex.

This data set deals with T1, indolicidin. The data set can be described thus: SPR.
For the molecule CGTGTGTGTC (ssDNA) [ss[GT]], binding was put at a Kd of 115 µM. Turning to CGCGGCGGCT (ssDNA) [ss[GC] (ss[CG] in Table 2)], binding was characterised by a dissociation constant (Kd) of 1530 µM.

Consider CATAATATTC (ssDNA) [ss[AT]], for which the Kd amounted to 2090 µM.

CAGAGAGAGT (ssDNA) [ss[AG]]: binding was characterised by a dissociation constant (Kd) of 2440 µM.
